Assay results reported in PMC8020760, “Assembly of a dsRNA synthesizing complex: RNA-DEPENDENT RNA POLYMERASE 2 contacts the largest subunit of NUCLEAR RNA POLYMERASE IV” (Proceedings of the National Academy of Sciences of the …, 2021).

Legend:
[1] = target: T1, recombinant NRPD1 fused at its C terminus to a FLAG epitope tag (A. thaliana, UniProt Q9LQ02 1-1453); experiment: co-IP; purified recombinant proteins, 0.25 µM each, 30 min, room temperature, 50 mM Hepes-KOH pH 7.5, 150 mM NaCl; IP with resin against the tag of one or the other partner (anti-FLAG, anti-V5 or anti-HA); immunoblot; settings: both partners purified
T1 construct: NRPD1 open reading frame, A. thaliana, codon optimized synthetic gene; full-length NRPD1 is 1,453 amino acids; More in SI Appendix, Methods; also called FLAG-tagged NRPD1; not shown: FLAG, C-terminal, kept
T1 sequence (looked up): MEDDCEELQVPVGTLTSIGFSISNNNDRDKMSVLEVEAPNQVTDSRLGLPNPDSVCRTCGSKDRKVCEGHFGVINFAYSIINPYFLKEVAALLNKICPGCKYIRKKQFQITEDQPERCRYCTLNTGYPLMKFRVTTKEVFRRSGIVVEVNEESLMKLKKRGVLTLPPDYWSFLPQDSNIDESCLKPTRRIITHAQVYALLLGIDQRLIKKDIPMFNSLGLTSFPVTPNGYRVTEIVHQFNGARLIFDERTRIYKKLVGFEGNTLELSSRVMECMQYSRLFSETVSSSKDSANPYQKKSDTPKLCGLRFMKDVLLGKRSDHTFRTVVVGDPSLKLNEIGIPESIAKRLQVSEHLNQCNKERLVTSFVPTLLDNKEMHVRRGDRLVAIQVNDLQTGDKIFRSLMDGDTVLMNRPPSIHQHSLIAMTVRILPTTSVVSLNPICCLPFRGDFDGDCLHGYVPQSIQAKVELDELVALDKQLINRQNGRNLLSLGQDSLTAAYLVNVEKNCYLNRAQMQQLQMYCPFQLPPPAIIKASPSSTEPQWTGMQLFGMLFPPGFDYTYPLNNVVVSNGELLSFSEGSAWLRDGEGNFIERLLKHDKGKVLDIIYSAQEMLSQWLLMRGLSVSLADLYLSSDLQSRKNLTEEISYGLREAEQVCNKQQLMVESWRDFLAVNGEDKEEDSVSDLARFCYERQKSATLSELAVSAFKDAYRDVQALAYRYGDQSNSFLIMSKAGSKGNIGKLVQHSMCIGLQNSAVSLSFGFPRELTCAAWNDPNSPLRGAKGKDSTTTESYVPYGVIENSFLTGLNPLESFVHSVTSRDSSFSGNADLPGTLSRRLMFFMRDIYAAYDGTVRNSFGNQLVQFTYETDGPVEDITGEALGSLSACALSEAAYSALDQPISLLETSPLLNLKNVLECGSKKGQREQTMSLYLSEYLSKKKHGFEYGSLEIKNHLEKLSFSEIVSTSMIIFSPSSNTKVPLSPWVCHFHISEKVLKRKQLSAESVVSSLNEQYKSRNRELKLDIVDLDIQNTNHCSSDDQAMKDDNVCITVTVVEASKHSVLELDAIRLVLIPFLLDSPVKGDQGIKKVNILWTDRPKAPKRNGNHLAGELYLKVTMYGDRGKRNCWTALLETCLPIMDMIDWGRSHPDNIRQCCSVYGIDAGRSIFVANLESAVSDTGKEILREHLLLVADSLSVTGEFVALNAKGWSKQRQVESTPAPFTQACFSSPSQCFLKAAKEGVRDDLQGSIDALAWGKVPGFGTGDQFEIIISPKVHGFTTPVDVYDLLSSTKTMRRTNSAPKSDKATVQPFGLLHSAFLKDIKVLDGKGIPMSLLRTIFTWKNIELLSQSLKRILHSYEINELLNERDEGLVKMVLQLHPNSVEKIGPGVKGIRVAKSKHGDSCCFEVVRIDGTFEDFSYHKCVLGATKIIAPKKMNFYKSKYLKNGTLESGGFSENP

[2] = target: T2, NRPD1-FLAG of plant Pol IV, as the band of about 165 kDa resolved by SDS-PAGE (A. thaliana, UniProt Q9LQ02 1-1453); experiment: far-Western, overlay or dot blot; far-Western: affinity-purified FLAG-tagged Pol II, Pol IV and Pol V resolved by SDS-PAGE, electroblotted to nitrocellulose, incubated with recombinant V5-tagged RDR2, detected with anti-V5-HRP; settings: both partners purified
T2 construct: NRPD1, largest catalytic subunit of Pol IV, A. thaliana; full-length NRPD1 is 1,453 amino acids; The band is assigned to NRPD1 by its size only; also called largest Pol IV subunit
T2 sequence (looked up): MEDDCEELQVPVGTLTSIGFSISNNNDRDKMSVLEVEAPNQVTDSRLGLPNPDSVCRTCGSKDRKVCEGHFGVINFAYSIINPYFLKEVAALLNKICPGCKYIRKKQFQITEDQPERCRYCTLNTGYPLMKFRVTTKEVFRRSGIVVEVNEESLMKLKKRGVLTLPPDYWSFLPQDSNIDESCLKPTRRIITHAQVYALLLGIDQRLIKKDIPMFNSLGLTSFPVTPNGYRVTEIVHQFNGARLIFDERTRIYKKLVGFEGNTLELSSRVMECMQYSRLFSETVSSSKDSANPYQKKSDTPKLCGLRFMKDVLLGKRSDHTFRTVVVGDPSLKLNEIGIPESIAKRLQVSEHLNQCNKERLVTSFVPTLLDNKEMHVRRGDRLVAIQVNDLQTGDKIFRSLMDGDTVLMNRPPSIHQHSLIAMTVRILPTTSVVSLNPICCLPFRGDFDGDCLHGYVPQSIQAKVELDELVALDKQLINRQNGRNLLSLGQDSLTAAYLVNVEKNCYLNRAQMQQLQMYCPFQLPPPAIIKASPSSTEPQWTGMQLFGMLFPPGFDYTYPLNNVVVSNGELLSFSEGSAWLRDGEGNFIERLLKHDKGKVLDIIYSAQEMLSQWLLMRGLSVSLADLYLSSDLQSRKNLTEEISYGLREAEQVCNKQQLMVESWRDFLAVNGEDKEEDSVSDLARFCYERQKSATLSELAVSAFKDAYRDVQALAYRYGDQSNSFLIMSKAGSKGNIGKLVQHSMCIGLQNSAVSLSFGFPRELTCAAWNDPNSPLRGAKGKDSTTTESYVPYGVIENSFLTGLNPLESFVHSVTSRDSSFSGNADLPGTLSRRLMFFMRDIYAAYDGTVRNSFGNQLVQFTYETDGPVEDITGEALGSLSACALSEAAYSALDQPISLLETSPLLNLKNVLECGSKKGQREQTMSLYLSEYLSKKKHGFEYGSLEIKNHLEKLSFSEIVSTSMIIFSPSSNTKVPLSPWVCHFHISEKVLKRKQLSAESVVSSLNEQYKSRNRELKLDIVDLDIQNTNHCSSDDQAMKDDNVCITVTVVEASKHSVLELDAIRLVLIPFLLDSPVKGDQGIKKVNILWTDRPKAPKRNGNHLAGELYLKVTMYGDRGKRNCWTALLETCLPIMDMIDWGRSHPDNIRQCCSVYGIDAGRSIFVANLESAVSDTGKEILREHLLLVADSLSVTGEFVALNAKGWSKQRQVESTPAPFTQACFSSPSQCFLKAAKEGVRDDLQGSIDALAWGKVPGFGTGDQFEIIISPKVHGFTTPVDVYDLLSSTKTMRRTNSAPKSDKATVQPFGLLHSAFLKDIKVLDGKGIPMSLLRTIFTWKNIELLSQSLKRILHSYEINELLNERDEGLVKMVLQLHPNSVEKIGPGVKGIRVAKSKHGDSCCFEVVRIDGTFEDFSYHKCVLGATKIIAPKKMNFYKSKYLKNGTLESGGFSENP

B1: recombinant RNA-DEPENDENT RNA POLYMERASE 2 (RDR2), wild type, with N-terminal V5 epitope and 6xHis tags (enzyme, A. thaliana, UniProt O82504 1-1133, looked up)
chain: MVSETTTNRSTVKISNVPQTIVADELLRFLELHLGEDTVFALEIPTTRDNWKPRDFARVQFTTLEVKSRAQLLSSQSKLLFKTHNLRLSEAYDDIIPRPVDPRKRLDDIVLTVGFPESDEKRFCALEKWDGVRCWILTEKRRVEFWVWESGDCYKIEVRFEDIIETLSCCVNGDASEIDAFLLKLKYGPKVFKRVTVHIATKFKSDRYRFCKEDFDFMWIRTTDFSGSKSIGTSTCFCLEVHNGSTMLDIFSGLPYYREDTLSLTYVDGKTFASAAQIVPLLNAAILGLEFPYEILFQLNALVHAQKISLFAASDMELIKILRGMSLETALVILKKLHQQSSICYDPVFFVKTQMQSVVKKMKHSPASAYKRLTEQNIMSCQRAYVTPSKIYLLGPELETANYVVKNFAEHVSDFMRVTFVEEDWSKLPANALSVNSKEGYFVKPSRTNIYNRVLSILGEGITVGPKRFEFLAFSASQLRGNSVWMFASNEKVKAEDIREWMGCFRKIRSISKCAARMGQLFSASRQTLIVRAQDVEQIPDIEVTTDGADYCFSDGIGKISLAFAKQVAQKCGLSHVPSAFQIRYGGYKGVIAVDRSSFRKLSLRDSMLKFDSNNRMLNVTRWTESMPCFLNREIICLLSTLGIEDAMFEAMQAVHLSMLGNMLEDRDAALNVLQKLSGENSKNLLVKMLLQGYAPSSEPYLSMMLRVHHESQLSELKSRCRILVPKGRILIGCMDEMGILEYGQVYVRVTLTKAELKSRDQSYFRKIDEETSVVIGKVVVTKNPCLHPGDIRVLDAIYEVHFEEKGYLDCIIFPQKGERPHPNECSGGDLDGDQFFVSWDEKIIPSEMDPPMDYAGSRPRLMDHDVTLEEIHKFFVDYMISDTLGVISTAHLVHADRDPEKARSQKCLELANLHSRAVDFAKTGAPAEMPYALKPREFPDFLERFEKPTYISESVFGKLYRAVKSSLAQRKPEAESEDTVAYDVTLEEAGFESFIETAKAHRDMYGEKLTSLMIYYGAANEEEILTGILKTKEMYLARDNRRYGDMKDRITLSVKDLHKEAMGWFEKSCEDEQQKKKLASAWYYVTYNPNHRDEKLTFLSFPWIVGDVLLDIKAENAQRQSVEEKTSGLVSI
binding result [1]: binds
binding result [2]: binds
